Measured values reported in the supplement of paper PMC11136658.

System: peptide library, one residue held at a place counted from the Y acceptor
Test: relative phosphorylation of the sub-library (ratio to the mean residue at this position); higher = residue favoured
Summary of the method: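 Within 384-well plates, purified recombinant kinases phosphorylated biotinylated Tyr-centred peptide library mixtures over 90 min using 50 μM ATP spiked with γ-32P-ATP; each mixture fixed one residue at one position from −5 to +5. Streptavidin membrane capture, rinsing, phosphorimaging and ImageQuant gave the intensities. These were normalized per position to the sum of the 18 randomized residues (16 for the Ser/Thr-free library) and multiplied by that number.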

Sequence of EPHB2, construct: aa611-893, human (P29323 611-893, looked up): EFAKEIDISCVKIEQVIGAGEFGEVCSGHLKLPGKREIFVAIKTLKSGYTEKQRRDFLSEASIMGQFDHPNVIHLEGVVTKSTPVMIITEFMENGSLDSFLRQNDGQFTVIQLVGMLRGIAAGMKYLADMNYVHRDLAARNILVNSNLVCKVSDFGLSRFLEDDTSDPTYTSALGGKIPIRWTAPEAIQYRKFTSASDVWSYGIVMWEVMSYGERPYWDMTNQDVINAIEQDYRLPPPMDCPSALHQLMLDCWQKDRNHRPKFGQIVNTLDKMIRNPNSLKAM
Sequence of EPHA8, construct: aa571-924, human (P29322 571-924, looked up): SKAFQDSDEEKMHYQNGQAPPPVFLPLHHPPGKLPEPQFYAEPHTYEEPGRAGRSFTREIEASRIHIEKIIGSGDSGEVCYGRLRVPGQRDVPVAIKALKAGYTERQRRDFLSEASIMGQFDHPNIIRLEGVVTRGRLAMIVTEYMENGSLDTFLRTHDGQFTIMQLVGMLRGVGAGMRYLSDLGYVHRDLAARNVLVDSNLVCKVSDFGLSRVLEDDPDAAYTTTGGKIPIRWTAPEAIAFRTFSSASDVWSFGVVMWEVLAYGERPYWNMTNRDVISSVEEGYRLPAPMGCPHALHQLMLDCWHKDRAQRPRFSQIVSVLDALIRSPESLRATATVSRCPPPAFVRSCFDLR

EPHA8, construct: aa571-924, human (from UniProt P29322)
relative phosphorylation
Details | at +1 | at +2 | at +3 | at +4 | at +5 | at -1 | at -2 | at -3 | at -4 | at -5
A fixed | 1.46 | 0.773 | 0.757 | 0.81 | 1.11 | 0.454 | 1.15 | 0.671 | 1.11 | 0.971
D fixed | 0.978 | 1.49 | 0.359 | 0.911 | 1.19 | 1.98 | 1.35 | 1.49 | 1.48 | 1.17
E fixed | 2.64 | 1.84 | 0.346 | 1.02 | 1.34 | 2.03 | 1.77 | 2.17 | 1.74 | 1.13
F fixed | 0.777 | 1.38 | 1.62 | 1.22 | 0.934 | 0.855 | 0.708 | 1.42 | 1.07 | 1.02
G fixed | 0.716 | 0.419 | 0.572 | 1.28 | 1.08 | 0.242 | 1.15 | 0.899 | 1.18 | 1.21
H fixed | 0.624 | 0.838 | 0.819 | 1.11 | 1.1 | 0.672 | 0.853 | 1.03 | 0.87 | 1.06
I fixed | 1.68 | 0.884 | 2.9 | 0.857 | 0.617 | 2.9 | 0.735 | 0.849 | 0.845 | 0.956
K fixed | 0.266 | 0.506 | 0.32 | 0.772 | 0.957 | 0.249 | 0.685 | 0.528 | 0.715 | 0.87
L fixed | 0.814 | 0.891 | 1.71 | 0.778 | 0.721 | 1.54 | 0.792 | 0.651 | 0.901 | 0.949
M fixed | 1.37 | 0.786 | 1.23 | 0.944 | 0.855 | 0.698 | 0.559 | 0.833 | 0.843 | 1.02
N fixed | 0.384 | 1.1 | 0.453 | 0.838 | 0.869 | 1.92 | 1.22 | 1.07 | 0.96 | 1.05
P fixed | 0.293 | 0.783 | 1.11 | 1.39 | 1.72 | 0.391 | 1.4 | 0.927 | 0.974 | 1.08
Q fixed | 1.07 | 0.823 | 0.559 | 0.932 | 0.897 | 0.402 | 1.11 | 0.813 | 1.12 | 0.977
R fixed | 0.318 | 0.723 | 0.453 | 1.05 | 1.14 | 0.288 | 0.778 | 0.688 | 0.818 | 0.884
S fixed | 0.849 | 0.886 | 0.485 | 0.822 | 0.943 | 0.422 | 1.14 | 0.958 | 0.838 | 0.834
T fixed | 0.745 | 0.855 | 0.607 | 0.795 | 0.96 | 1.15 | 0.865 | 0.837 | 0.67 | 0.782
V fixed | 1.7 | 0.914 | 2.1 | 0.81 | 0.644 | 1.11 | 0.947 | 0.728 | 0.779 | 0.849
W fixed | 1.32 | 2.12 | 1.59 | 1.65 | 0.932 | 0.693 | 0.778 | 1.44 | 1.1 | 1.19
pThr fixed | 1.94 | 2.25 | 0.437 | 1.02 | 1.1 | 3.17 | 1.26 | 1.04 | 0.986 | 0.968
pTyr fixed | 4.68 | 7.04 | 1.16 | 1.22 | 1.39 | 2.63 | 1.63 | 1.34 | 1.37 | 1.27

EPHB2, construct: aa611-893, human (from UniProt P29323)
relative phosphorylation
Details | at +1 | at +2 | at +3 | at +4 | at +5 | at -1 | at -2 | at -3 | at -4 | at -5
A fixed | 1.72 | 0.968 | 0.884 | 0.898 | 1.16 | 0.485 | 1.16 | 0.764 | 1.06 | 1.02
D fixed | 1.17 | 1.15 | 0.473 | 1.11 | 1.01 | 2.48 | 1.32 | 1.45 | 1.35 | 1.24
E fixed | 2.89 | 1.54 | 0.434 | 1.07 | 1.06 | 1.55 | 1.47 | 1.76 | 1.28 | 0.996
F fixed | 0.59 | 1.27 | 1.36 | 0.922 | 0.937 | 0.938 | 0.635 | 1.33 | 1.11 | 0.972
G fixed | 1.1 | 0.438 | 0.65 | 1.2 | 1.18 | 0.224 | 1.17 | 0.845 | 1.28 | 1.05
H fixed | 0.443 | 0.626 | 1.29 | 1.1 | 0.998 | 0.494 | 0.825 | 0.807 | 0.872 | 0.921
I fixed | 1.23 | 1.39 | 1.72 | 0.817 | 0.889 | 2.02 | 0.77 | 1 | 0.898 | 0.905
K fixed | 0.166 | 0.428 | 0.273 | 0.699 | 0.691 | 0.207 | 0.791 | 0.522 | 0.784 | 0.995
L fixed | 0.752 | 0.958 | 1.31 | 0.864 | 1.06 | 1.85 | 0.769 | 0.927 | 0.963 | 0.946
M fixed | 1.33 | 0.838 | 1.19 | 1.09 | 0.934 | 0.759 | 0.674 | 0.919 | 0.868 | 0.942
N fixed | 0.41 | 0.927 | 0.646 | 0.796 | 0.853 | 2.06 | 1.26 | 1.03 | 0.937 | 1.11
P fixed | 0.171 | 0.732 | 1.27 | 1.16 | 1.46 | 0.343 | 1.33 | 0.945 | 1.09 | 1.19
Q fixed | 1.2 | 0.882 | 0.762 | 0.976 | 0.868 | 0.502 | 1.17 | 0.933 | 1.25 | 1.12
R fixed | 0.22 | 0.618 | 0.433 | 0.771 | 0.756 | 0.245 | 0.749 | 0.603 | 0.802 | 0.96
S fixed | 0.992 | 0.953 | 0.769 | 1.03 | 1.11 | 0.47 | 1.43 | 0.968 | 0.898 | 0.88
T fixed | 0.766 | 1.1 | 0.908 | 0.949 | 1.05 | 1.03 | 0.923 | 0.794 | 0.667 | 0.726
V fixed | 1.77 | 1.78 | 1.92 | 1.02 | 0.934 | 1.48 | 0.878 | 0.928 | 0.851 | 0.957
W fixed | 1.07 | 1.41 | 1.7 | 1.52 | 1.04 | 0.868 | 0.657 | 1.46 | 1.05 | 1.07
pThr fixed | 1.64 | 1.98 | 0.439 | 0.858 | 0.64 | 1.77 | 1.05 | 0.962 | 0.894 | 0.877
pTyr fixed | 1.75 | 4.02 | 0.872 | 1.28 | 1.1 | 2.15 | 1.15 | 1.12 | 1.04 | 1.12
